Results taken from publication PMC4368157, “The Interaction Affinity between Vascular Cell Adhesion Molecule-1 (VCAM-1) and Very Late Antigen-4 (VLA-4) Analyzed by Quantitative FRET” (PLoS ONE, 2015).

B1: Alexa Fluor 546-VCAM-1 conjugate (human recombinant Vascular Cell Adhesion Molecule-1, soluble form) (ligand, UniProt P19320 25-698, looked up)
chain: FKIETTPESRYLAQIGDSVSLTCSTTGCESPFFSWRTQIDSPLNGKVTNEGTTSTLTMNPVSFGNEHSYLCTATCESRKLEKGIQVEIYSFPKDPEIHLSGPLEAGKPITVKCSVADVYPFDRLEIDLLKGDHLMKSQEFLEDADRKSLETKSLEVTFTPVIEDIGKVLVCRAKLHIDEMDSVPTVRQAVKELQVYISPKNTVISVNPSTKLQEGGSVTMTCSSEGLPAPEIFWSKKLDNGNLQHLSGNATLTLIAMRMEDSGIYVCEGVNLIGKNRKEVELIVQEKPFTVEISPGPRIAAQIGDSVMLTCSVMGCESPSFSWRTQIDSPLSGKVRSEGTNSTLTLSPVSFENEHSYLCTVTCGHKKLEKGIQVELYSFPRDPEIEMSGGLVNGSSVTVSCKVPSVYPLDRLEIELLKGETILENIEFLEDTDMKSLENKSLEMTFIPTIEDTGKALVCQAKLHIDDMEFEPKQRQSTQTLYVNVAPRDTTVLVSPSSILEEGSSVNMTCLSQGFPAPKILWSRQLPNGELQPLSENATLTLISTKMEDSGVYLCEGINQAGRSRKEVELIIQVTPKDIKLTAFPSESVKEGDTVIISCTCGNVPETWIILKKKAETGDTVLKSIDGAYTIRKAQLKDAGVYECESKNKVGSQLRSLTLDVQGRENNKDYFSPE
modifications: Alexa Fluor 546 on aliphatic amine groups (amine terminus, ε-amino groups of lysines); F/P ratio 0.60 ± 0.02; sites not stated
notes: Vascular Cell Adhesion Molecule-1 (VCAM-1/CD106), human, recombinant soluble form; also called AF546-VCAM-1; CD106; source: bought: R&D Systems; conjugated with Alexa Fluor 546 succinimidyl ester, dialysed
B2: human recombinant VCAM-1 Fc chimera (Fc fusion, UniProt P19320 25-698, looked up)
chain: B1 chain
notes: Vascular Cell Adhesion Molecule-1 (VCAM-1/CD106), human, recombinant soluble form fused to Fc; source: bought: R&D Systems

How the values were obtained:
[1] = biological target: T1, Alexa Fluor 488-VLA-4 conjugate (human recombinant Very late antigen-4, soluble form) (human, UniProt P13612 35-977; P05556 21-728, Alexa Fluor 488 on aliphatic amine groups (amine terminus, ε-amino groups of lysines); F/P ratio of the conjugate 3.0 ± 0.8; sites and chain not stated | Alexa Fluor 488 on aliphatic amine groups …); assay: FRET or BRET; in solution, steady state; donor AF488-VLA-4 fixed at 350 nM, acceptor AF546-VCAM-1 titrated up to 850 nM; PBS with 1 mM EGTA, 2 mM MgCl2, pH 7.4, 30 minutes, 96-well plate; excitation 470 nm; fit assumes one-to-one interaction; details: both partners purified
T1 construct: integrin α4 subunit (CD49d) of VLA-4, human, recombinant soluble form; integrin β1 subunit (CD29) of VLA-4, human, recombinant soluble form; also called AF488-VLA-4; A488-VLA-4; source: bought: R&D Systems; conjugated with Alexa Fluor 488 succinimidyl ester, dialysed

[2] = biological target: T2, human recombinant VLA-4 (Very late antigen-4, soluble form, without fluorophore) (human, UniProt P13612 35-977; P05556 21-728); assay: SPR; BIAcore 3000, CM5 chip; VCAM-1Fc captured by immobilised anti-human IgG (Fc); VLA-4 flowed at 100, 150, 400, 450 and 500 nM; PBS with 1 mM EGTA and 2 mM Mg2+; 5 μl/min; Langmuir model; details: both partners purified
T2 construct: integrin α4 subunit (CD49d) of VLA-4, human, recombinant soluble form; integrin β1 subunit (CD29) of VLA-4, human, recombinant soluble form; Same bought protein as in m1, not conjugated; also called CD49d/CD29; α4β1; source: bought: R&D Systems
T2 sequence (P13612 35-977, chain 1 of 2): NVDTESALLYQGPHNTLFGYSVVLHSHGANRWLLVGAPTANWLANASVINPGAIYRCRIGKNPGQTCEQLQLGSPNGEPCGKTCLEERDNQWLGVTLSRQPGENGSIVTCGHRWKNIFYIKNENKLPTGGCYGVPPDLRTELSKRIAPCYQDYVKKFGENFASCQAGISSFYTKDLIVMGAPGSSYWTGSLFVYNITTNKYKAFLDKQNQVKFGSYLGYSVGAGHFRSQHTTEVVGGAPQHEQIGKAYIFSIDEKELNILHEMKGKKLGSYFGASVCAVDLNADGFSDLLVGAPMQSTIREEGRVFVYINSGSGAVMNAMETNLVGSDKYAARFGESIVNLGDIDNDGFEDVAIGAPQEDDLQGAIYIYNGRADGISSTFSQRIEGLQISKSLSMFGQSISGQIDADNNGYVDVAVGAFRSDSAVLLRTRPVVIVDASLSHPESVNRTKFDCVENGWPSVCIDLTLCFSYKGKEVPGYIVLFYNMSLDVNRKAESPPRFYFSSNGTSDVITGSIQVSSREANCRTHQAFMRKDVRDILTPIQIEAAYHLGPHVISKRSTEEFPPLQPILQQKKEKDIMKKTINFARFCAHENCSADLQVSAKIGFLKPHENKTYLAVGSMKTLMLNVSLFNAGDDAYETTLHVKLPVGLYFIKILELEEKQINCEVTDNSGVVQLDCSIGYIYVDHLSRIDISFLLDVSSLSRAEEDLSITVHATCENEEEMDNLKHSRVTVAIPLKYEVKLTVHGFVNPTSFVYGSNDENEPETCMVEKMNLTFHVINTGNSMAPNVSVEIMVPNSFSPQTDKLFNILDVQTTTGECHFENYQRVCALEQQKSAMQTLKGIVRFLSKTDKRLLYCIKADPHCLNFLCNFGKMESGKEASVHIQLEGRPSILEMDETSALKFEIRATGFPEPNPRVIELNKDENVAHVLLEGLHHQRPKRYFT
T2 sequence (P05556 21-728, chain 2 of 2): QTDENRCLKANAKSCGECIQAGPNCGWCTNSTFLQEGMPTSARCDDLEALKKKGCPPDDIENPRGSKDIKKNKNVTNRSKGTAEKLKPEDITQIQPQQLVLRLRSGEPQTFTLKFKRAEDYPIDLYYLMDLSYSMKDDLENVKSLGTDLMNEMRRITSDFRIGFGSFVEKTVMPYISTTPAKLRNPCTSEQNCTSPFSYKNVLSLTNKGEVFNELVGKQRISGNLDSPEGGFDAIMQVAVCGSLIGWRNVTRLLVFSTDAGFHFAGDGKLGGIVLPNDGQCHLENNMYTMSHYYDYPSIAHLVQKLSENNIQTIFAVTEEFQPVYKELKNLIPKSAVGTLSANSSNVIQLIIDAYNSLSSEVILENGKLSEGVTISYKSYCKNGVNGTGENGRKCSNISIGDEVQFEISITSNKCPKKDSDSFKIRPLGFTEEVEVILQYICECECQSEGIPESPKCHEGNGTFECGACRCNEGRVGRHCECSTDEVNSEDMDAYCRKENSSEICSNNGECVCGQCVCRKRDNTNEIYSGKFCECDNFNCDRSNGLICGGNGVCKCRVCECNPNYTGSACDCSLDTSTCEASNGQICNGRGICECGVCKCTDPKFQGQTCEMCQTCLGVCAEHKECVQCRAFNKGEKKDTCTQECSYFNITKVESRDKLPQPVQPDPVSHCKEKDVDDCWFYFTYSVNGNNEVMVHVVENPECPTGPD

T1 sequence (P13612 35-977, chain 1 of 2): as the sequence (P13612 35-977, chain 1 of 2) above
T1 sequence (P05556 21-728, chain 2 of 2): as the sequence (P05556 21-728, chain 2 of 2) above

Binder | Kd [1] [nM] | Kd [2] [nM]
B1 | 41.8 | 
B2 |  | 39.6 ± 1.78
